Results published in article PMC7006622.

Target: thrombin (UniProt P00734;P00734 328-363;364-622)
Assay: single-molecule TIRF, transient Cy3 probe binding to switch; LOD 20 pM (not a Kd); no specific signal without thrombin; 1x PBS with oxygen scavenger system, 20 nM Cy3 probe, 25 +/- 1 C; switch immobilised on PEG/biotin-PEG streptavidin glass

B1: thrombin-responsive three-way-junction molecular switch (B4 + G13 + CP1, probed by FP1) (structured_DNA)
DNA 1: TGGGATGGTTGGTGTGGTTGGCCGTACTCTATGAGCCTCTG
DNA 2: TCAGTGGGGTTGGACGGGATGGTGCCTGACCGTGT
DNA 3: TTTTTCAGAGGCTCATAGAGTACGG
DNA 4: AAACACGGATCCCATA
binding result: binds
